T1: mouse vitronectin (ab92727, Abcam) (mouse, UniProt P29788 20-478)
T1 sequence (looked up): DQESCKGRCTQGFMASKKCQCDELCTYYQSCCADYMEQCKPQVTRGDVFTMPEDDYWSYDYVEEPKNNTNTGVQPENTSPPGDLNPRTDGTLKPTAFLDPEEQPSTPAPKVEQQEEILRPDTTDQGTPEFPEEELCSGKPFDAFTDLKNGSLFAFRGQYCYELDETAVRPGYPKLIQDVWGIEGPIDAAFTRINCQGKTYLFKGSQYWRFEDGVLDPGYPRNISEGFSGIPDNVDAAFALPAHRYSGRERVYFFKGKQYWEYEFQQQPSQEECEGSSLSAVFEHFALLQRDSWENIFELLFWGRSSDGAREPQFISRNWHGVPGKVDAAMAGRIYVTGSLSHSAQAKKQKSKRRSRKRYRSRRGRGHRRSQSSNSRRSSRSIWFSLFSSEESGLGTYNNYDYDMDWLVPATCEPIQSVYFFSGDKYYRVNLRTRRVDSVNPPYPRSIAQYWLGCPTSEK


Assays:
[1] = molecular target: human vitronectin (2349-VN, R&D Systems) (human, UniProt P04004 20-478); test: BLI
Sequence of human vitronectin (2349-VN, R&D Systems) (P04004 20-478): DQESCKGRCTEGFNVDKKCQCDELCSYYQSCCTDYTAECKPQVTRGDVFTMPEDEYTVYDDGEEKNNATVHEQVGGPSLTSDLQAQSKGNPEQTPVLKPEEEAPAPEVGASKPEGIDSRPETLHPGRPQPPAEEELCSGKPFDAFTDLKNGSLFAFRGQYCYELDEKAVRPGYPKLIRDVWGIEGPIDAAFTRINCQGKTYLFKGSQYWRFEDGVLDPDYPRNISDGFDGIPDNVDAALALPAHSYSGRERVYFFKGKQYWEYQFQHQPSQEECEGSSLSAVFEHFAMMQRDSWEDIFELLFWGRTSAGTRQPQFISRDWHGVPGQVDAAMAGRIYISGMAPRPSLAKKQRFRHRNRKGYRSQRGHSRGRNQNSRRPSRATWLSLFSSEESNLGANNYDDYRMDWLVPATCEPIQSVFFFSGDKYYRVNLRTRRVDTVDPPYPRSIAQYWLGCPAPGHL

[2] = molecular target: T1, mouse vitronectin (ab92727, Abcam); test: BLI

| Kd [1] [nM] | Kd [2] [nM] | Binder |
| --- | --- | --- |
| 37.4 ± 0.6 | – | His-tagged human testican-2 (2328-PI, R&D Systems) (natural protein, UniProt Q92563 23-424, looked up) EGDAKGLKEGETPGNFMEDEQWLSSISQYSGKIKHWNRFRDEVEDDYIKSWEDNQQGDEALDTTKDPCQKVKCSRHKVCIAQGYQRAMCISRKKLEHRIKQPTVKLHGNKDSICKPCHMAQLASVCGSDGHTYSSVCKLEQQACLSSKQLAVRCEGPCPCPTEQAATSTADGKPETCTGQDLADLGDRLRDWFQLLHENSKQNGSASSVAGPASGLDKSLGASCKDSIGWMFSKLDTSADLFLDQTELAAINLDKYEVCIRPFFNSCDTYKDGRVSTAEWCFCFWREKPPCLAELERIQIQEAAKKKPGIFIPSCDEDGYYRKMQCDQSSGDCWCVDQLGLELTGTRTHGSPDCDDIVGFSGDFGSGVGWEDEEEKETEEAGEEAEEEEGEAGEADDGGYIW |
| 348 ± 12.4 | – | deglycosylated human testican-2 (natural protein, UniProt Q92563 23-424, looked up, deglycosylated (Protein Deglycosylation Mix II kit)) EGDAKGLKEGETPGNFMEDEQWLSSISQYSGKIKHWNRFRDEVEDDYIKSWEDNQQGDEALDTTKDPCQKVKCSRHKVCIAQGYQRAMCISRKKLEHRIKQPTVKLHGNKDSICKPCHMAQLASVCGSDGHTYSSVCKLEQQACLSSKQLAVRCEGPCPCPTEQAATSTADGKPETCTGQDLADLGDRLRDWFQLLHENSKQNGSASSVAGPASGLDKSLGASCKDSIGWMFSKLDTSADLFLDQTELAAINLDKYEVCIRPFFNSCDTYKDGRVSTAEWCFCFWREKPPCLAELERIQIQEAAKKKPGIFIPSCDEDGYYRKMQCDQSSGDCWCVDQLGLELTGTRTHGSPDCDDIVGFSGDFGSGVGWEDEEEKETEEAGEEAEEEEGEAGEADDGGYIW |
| – | 63.7 ± 2.3 | His-tagged mouse testican-2 (MBS1458329, MyBioSource) (natural protein, UniProt Q9ER58 23-423, looked up) EGDAKGLKEGETPGNFMEDEQWLSSISQYSGKIKHWNRFRDEVEDDYIKSWEDNQQGDEALDTTKDPCQKVKCSRHKVCVAQGYQRAMCISRKKLEHRIKQPSLKLHGGKDSVCKPCHMAQLASVCGSDGHTYSSVCKLEQQACLSSKQLAVRCEGPCPCPTEQSTASTTDSKSETCTGQDLADLGDRLRDWFQLLRENSKQNGSANSATNPAGLDKSLGASCKDSIGWMFSKLDTSGDLFLDQTELAAINLDKYEVCIRPFFNSCDTYKDGRVSTAEWCFCFWREKPPCLAELERTQIQEAAKKKPGVFIPSCDEDGYYRKMQCDQSRGDCWCVDQLGLELTGTRMHGTPDCDDIVGFSGDFGSGVGWEDEEEKETEEAGEEAEEEEGEAGEADDGGYIW |

Reference: publication PMC12776367 (Journal of the American Society of Nephrology : JASN, 2025)
